Eleven molecules from patent publication US20260176373A1 (BRIGHT BIOLOGICS, published 2026) can be followed below.

Experiment [1] addresses T1, human TROP2 (Trophoblast cell-surface antigen 2) (human, UniProt P09758 27-323).
T1 construct: whole, on cells; also called TACSTD2; h-TROP2
T1 sequence (looked up): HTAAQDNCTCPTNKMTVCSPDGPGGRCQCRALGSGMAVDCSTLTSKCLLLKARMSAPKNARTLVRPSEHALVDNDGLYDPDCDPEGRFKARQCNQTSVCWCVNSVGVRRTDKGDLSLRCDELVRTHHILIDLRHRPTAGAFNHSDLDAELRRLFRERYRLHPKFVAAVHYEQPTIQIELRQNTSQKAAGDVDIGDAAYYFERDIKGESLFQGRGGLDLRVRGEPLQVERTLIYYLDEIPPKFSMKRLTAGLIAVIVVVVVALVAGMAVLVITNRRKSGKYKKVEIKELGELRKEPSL
Description: flow cytometry whole cell binding, CHO-h-TROP2 stable cells. The protocol: (§1) Binding of bivalent anti-TROP2 VHH-Fc clones to human TROP2 in human TROP2 stably transfected CHO cells (CHO-h-TROP2 stable cells) were determined by flow cytometry whole cell binding (WCB) assays. Briefly, antibodies were incubated at different concentrations with CHO-h-TROP2 stable cells (0.2×10⁶/ml) in 96-well plates (100 μl/well) in FACS buffer for 30 min. After washing, Alexa Fluor 488 conjugated anti-human IgG Fc secondary antibody was added, and incubated for 30 min. After washing, MFI was measured using CytoFlex by gating live cell population with FITC channel. EC50 of binding was calculated using GraphPad Prism7.0.
Humanization of Alpaca clone 1H11 was carried out using the same strategy. Ten humanized VHH-Fc variants were made with minor difference in Framework 2. The binding activity of humanized variants to human TROP2 was examined using whole cell binding assays.
Background: In flow cytometry, cells or beads pass a laser one at a time.

Experiment [2] concerns the target T1, human TROP2 (Trophoblast cell-surface …). Description: flow cytometry whole cell binding, Colo205 cells (endogenous TROP2).
Experiment [3] has as its target T2, human TROP2 (Trophoblast cell-surface antigen 2) (human, UniProt P09758 27-323).
T2 chain: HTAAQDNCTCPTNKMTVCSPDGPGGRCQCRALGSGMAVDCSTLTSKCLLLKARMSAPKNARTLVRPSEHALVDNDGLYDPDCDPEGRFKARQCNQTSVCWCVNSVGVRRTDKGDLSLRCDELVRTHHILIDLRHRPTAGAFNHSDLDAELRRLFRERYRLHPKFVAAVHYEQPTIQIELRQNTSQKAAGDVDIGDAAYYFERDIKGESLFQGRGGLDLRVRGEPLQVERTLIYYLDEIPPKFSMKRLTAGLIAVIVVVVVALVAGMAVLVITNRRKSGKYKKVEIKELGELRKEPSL
Description: flow cytometry whole cell binding, SKBR3.

Experiment [4] has as its target T1, human TROP2 (Trophoblast cell-surface …). The experiment is described as follows: flow cytometry whole cell binding, NCI-H1975 cells (endogenous TROP2).
The target is the same in experiment [5]. The experiment is described as follows: flow cytometry whole cell binding, h-TROP2 stably transfected CHO cells. The protocol: as §1
Experiment [6] has as its target human TROP2 (Trophoblast cell-surface antigen 2) (human) (UniProt P09758). The experiment is described as follows: cell-based or functional assay.
Experiment [7] deals with T1, human TROP2 (Trophoblast cell-surface …). Description: flow cytometry whole cell binding, CHO-h-TROP2 stable cells. The protocol:
as §1
The same strategy was carried out for the humanization of Alpaca clone 4C6. Ten humanized VHH-Fc variants were made for 4C6 with minor difference in Framework 2 and Framework 3. Whole cell binding to CHO-h-TROP2 stable cells was performed to compare the binding affinities of these humanized VHH-Fc variants to the parental Alpaca clone 4C6.
This is another data set of the same source.

B1: anti-TROP2 VHH-Fc clone Alpaca 1H11 (antibody, human IgG1, V domains shown)
VH: LVQLVESGGGLVQAGDSLRLSCTASGGTFSRYIIGWFRQAPGKEREFVTTISGSGGSTYYADSVKGRFTISRDNAKNTVFLQMNSLKPEDTAVYYCASTFYSTTYVAQRDARDYAYWGQGTQVTVSS
notes: domain: hinge region and constant domains (CH2 and CH3); bivalent VHH-Fc, human IgG1 Fc
For the molecule B1, the EC50 (in general, the midpoint of the concentration-response curve) worked out at 1.57 nM in experiment [1]; 1.53 nM in experiment [2]; 2.14 nM in experiment [3]; 2.59 nM in experiment [4]; 1.84 nM in experiment [5].

B2: 1H11-hv7 (humanized VHH-Fc variant of 1H11) (antibody, V domains shown)
VH: EVQLVESGGGLVQPGGSLRLSCAASGGTFSRYIIGWFRQAPGKEREFVSTISGSGGSTYYADSVKGRFTISRDNSKNTLYLQMNSLRAEDTAVYYCASTFYSTTYVAQRDARDYAYWGQGTQVTVSS
As to B2, the figures for the concentration for a half-maximal effect (EC50) in experiment [1], in experiment [2] and in experiment [4] were 2.59 nM, 1.19 nM and 2.42 nM, respectively.

B3: 1H11-hv8 (humanized VHH-Fc variant of 1H11, Example 5) (antibody, V domains shown)
VH: EVQLVESGGGLVQPGGSLRLSCAASGGTFSRYIMGWFRQAPGKEREFVSTISGSGGSTYYADSVKGRFTISRDNSKNTLYLQMNSLRAEDTAVYYCASTFYSTTYVAQRDARDYAYWGQGTQVTVSS
notes: hinge not specified
Take B3: the EC50 is 1.97 nM in experiment [1], 1.29 nM in experiment [2] and 2.54 nM in experiment [4].

B4: 1H11-hv6 (humanized VHH-Fc variant of 1H11) (antibody, V domains shown)
VH: EVQLVESGGGLVQPGGSLRLSCAASGGTFSRYIIGWFRQAPGKEREFVTTISGSGGSTYYADSVKGRFTISRDNSKNTLYLQMNSLRAEDTAVYYCASTFYSTTYVAQRDARDYAYWGQGTQVTVSS
Consider B4, for which the EC50 in experiment [1] was found to be 2.18 nM; in experiment [2], 1.22 nM; in experiment [4], 2.7 nM.

B5: 1H11-hv9 (humanized VHH-Fc variant of 1H11) (antibody, V domains shown)
VH: EVQLVESGGGLVQPGGSLRLSCAASGGTFSRYIMSWFRQAPGKEREFVSTISGSGGSTYYADSVKGRFTISRDNSKNTLYLQMNSLRAEDTAVYYCASTFYSTTYVAQRDARDYAYWGQGTQVTVSS
Consider B5, for which the values for the EC50 in experiment [1], in experiment [2] and in experiment [4] were 2.73 nM, 1.29 nM and 3.04 nM, respectively.

B6: 1H11-hv10 (humanized VHH-Fc variant of 1H11, Example 5) (antibody, V domains shown)
VH: EVQLVESGGGLVQPGGSLRLSCAASGGTFSRYIMSWFRQAPGKEREFVSAISGSGGSTYYADSVKGRFTISRDNSKNTLYLQMNSLRAEDTAVYYCASTFYSTTYVAQRDARDYAYWGQGTQVTVSS
notes: hinge not specified
For B6, the EC50 came out at 2.29 nM in experiment [1], 1.71 nM in experiment [2] and 3.12 nM in experiment [4].

B7: Immu-132_MMAE (protein, INN chains, looked up)
VH: QVQLQQSGSELKKPGASVKVSCKASGYTFTNYGMNWVKQAPGQGLKWMGWINTYTGEPTYTDDFKGRFAFSLDTSVSTAYLQISSLKADDTAVYFCARGGFGSSYWYFDVWGQGSLVTVSS
VL: DIQLTQSPSSLSASVGDRVSITCKASQDVSIAVAWYQQKPGKAPKLLIYSASYRYTGVPDRFSGSGSGTDFTLTISSLQPEDFAVYYCQQHYITPLTFGAGTKVEIK
modifications: vc-MMAE payload conjugate
B7: in experiment [6], the IC50 (nM) in ADC mediated killing, NCI-H441 cells, Immu-132 MMAE DAR3.5 is 0.047 nM; the IC50 (nM) in ADC mediated killing, NCI-H441 cells, Immu-132 MMAE DAR4.0 is 0.04 nM; the IC50 (nM) in ADC mediated killing, NCI-H441 cells, Immu-132 MMAE DAR4.4 was 0.033 nM; the IC50, nM, in killing assay, A431 cells worked out at 0.611 nM. In experiment [6], this molecule returned an IC50, nM, in killing assay, AU-565 cells of 0.0489 nM; an IC50, nM, in killing assay, Colo205 cells of 0.45 nM; an IC50, nM, in killing assay, N87 cells of 0.092 nM; an IC50, nM, in killing assay, NCI-H441 cells of 0.054 nM. Also, in experiment [6], the IC50, nM, in killing assay, NCI-H1975 cells is 0.25 nM; the IC50, nM, in killing assay, OE-19 cells came out at 1.1 nM; the IC50, nM, in killing assay, SK-OV3 cells worked out at 1.44 nM; the IC50, nM, in killing assay, SKBR3 cells turned out to be 0.0362 nM. Moreover, the IC50, nM, in killing assay, T-47D cells in experiment [6] turned out to be 0.21 nM.

B8: 4C6-hv10 (humanized VHH-Fc variant of 4C6) (antibody, V domains shown)
VH: EVQLVESGGGLVQPGGSLRLSCAASGHPFAMYAMGWFRQAPGKEREFVAAIAGNGGSTSYADSVKGRFTISRDNSKNTLYLQMNSLRAEDTAVYYCAAAGGTFYSGTTVATRSSHYDYWGQGTQVTVSS
The molecule B8 displayed a concentration for a half-maximal effect (EC50) in experiment [7] of 1.46 nM.

B9: 4C6-hv9 (humanized VHH-Fc variant of 4C6) (antibody, V domains shown)
VH: EVQLVESGGGLVQPGGSLRLSCAASGHPFAMYAMGWFRQAPGKEREFVSAIAGNGGSTYYADSVKGRFTISRDNSKNTLYLQMNSLRAEDTAVYYCAAAGGTFYSGTTVATRSSHYDYWGQGTQVTVSS
B9: it took 2.32 nM to reach a half-maximal effect in experiment [7] (EC50).

B10: anti-TROP2 VHH-Fc clone Alpaca 4C6 (antibody, human IgG1, V domains shown)
VH: QVQVVESGGGLVQAGGSQRLSCAVSGHPFAMYAMGWFRQAPGKEREFVAAIAGNGGSTSYADSVKGRFTISRDYAKNTNYLQMNSLEPEDTAVYYCAAAGGTFYSGTTVATRSSHYDYWGQGTQVTVSS
notes: domain: hinge region and constant domains (CH2 and CH3); bivalent VHH-Fc, human IgG1 Fc; also called 4C6 Alpaca
Take B10: the results for the half-maximal effective concentration (EC50) in experiment [7], in experiment [3] and in experiment [5] were 0.97 nM, 1.58 nM and 1.37 nM, respectively.

B11: 4C6-hv4 (humanized VHH-Fc variant of 4C6) (antibody, V domains shown)
VH: EVQLVESGGGLVQPGGSLRLSCAASGHPFAMYAMGWFRQAPGKEREFVSAIAGNGGSTSYADSVKGRFTISRDNSKNTLYLQMNSLRAEDTAVYYCAAAGGTFYSGTTVATRSSHYDYWGQGTQVTVSS
Take B11: the EC50 in experiment [7] amounted to 2.6 nM.
